According to the supplement of paper PMC7125110:
± gives the standard error. For some assays here: Fewer inactive variants are shown than the library holds.

B1: glmS ribozyme (parent)
chain: AUAAAAGCGCCAGAACUACAGAAAUGUAGUUGACGAGGAGGAGGUUUAUCGAAUUUUCGGCGGAUGCCUCCAAA

How the values were obtained:
Conditions in all cases: with glucosamine-6-phosphate
[1] = variants of: B1; test: kcat; higher = faster cleavage; RNA array
How it was run: (§1)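 Tiles bearing barcoded ribozyme variants, transcribed in situ by E. coli RNA polymerase on sequenced MiSeq chips, were imaged over ~14 h at 37 °C using a hybridised Cy3 probe. Glucosamine-6-phosphate was supplied at 40 μM to 10 mM in HEPES/KCl/Mg(OAc)2 buffer. kobs came from one- or two-exponential decay fits to normalised per-tile medians, and weighted Michaelis–Menten fits then provided kcat and KM.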

[2] = variants of: B1; test: KM; higher = weaker cofactor use; RNA array
How it was run: as §1

[3] = variants of: B1; test: self-cleavage kobs at 40 uM GlcN6P; higher = faster cleavage; RNA array
How it was run: as §1

[4] = variants of: B1; test: self-cleavage kobs at 160 uM GlcN6P; higher = faster cleavage; RNA array
How it was run: as §1

[5] = variants of: B1; test: self-cleavage kobs at 640 uM GlcN6P; higher = faster cleavage; RNA array
How it was run: as §1

[6] = variants of: B1; test: self-cleavage kobs at 2500 uM GlcN6P; higher = faster cleavage; RNA array
How it was run: as §1

[7] = variants of: B1; test: self-cleavage kobs at 10000 uM GlcN6P; higher = faster cleavage; RNA array
How it was run: as §1

Variant	kcat [1]	KM [2]	self-cleavage kobs at 40 uM GlcN6P [3]	self-cleavage kobs at 160 uM GlcN6P [4]	self-cleavage kobs at 640 uM GlcN6P [5]	self-cleavage kobs at 2500 uM GlcN6P [6]	self-cleavage kobs at 10000 uM GlcN6P [7]
A14C A64G	0.00265 ± 0.00066 s⁻¹	884 ± 370 µM	0.000141 ± 3e-05 s⁻¹	0.000434 ± 0.0002 s⁻¹	0.000733 ± 0.00024 s⁻¹	0.00221 ± 0.00047 s⁻¹	0.00267 ± 0.00068 s⁻¹
G29C U45G	0.000453 ± 2e-05 s⁻¹	4250 ± 400 µM			6.1e-05 ± 1.6e-05 s⁻¹	0.000159 ± 3.6e-05 s⁻¹	0.000319 ± 3.3e-05 s⁻¹
A6C U69C	3.1e-05 ± 9.9e-06 s⁻¹		< 1e-05 s⁻¹			4.93e-05 ± 2e-05 s⁻¹	
G59A A64G	9.06e-05 ± 1.3e-05 s⁻¹		< 1e-05 s⁻¹			6.66e-05 ± 2.7e-05 s⁻¹	7.67e-05 ± 1.6e-05 s⁻¹
C34A U46G	< 1e-05 s⁻¹		< 1e-05 s⁻¹		< 1e-05 s⁻¹	< 1e-05 s⁻¹	< 1e-05 s⁻¹
C8G C10A	< 1e-05 s⁻¹		< 1e-05 s⁻¹	< 1e-05 s⁻¹	< 1e-05 s⁻¹	< 1e-05 s⁻¹	< 1e-05 s⁻¹
C11U G13U	6.21e-05 ± 5.4e-06 s⁻¹	1020 ± 420 µM				4.88e-05 ± 9.5e-06 s⁻¹	5.47e-05 ± 8.2e-06 s⁻¹
A15C G32A U55A	0.00195 ± 0.00087 s⁻¹			7.61e-05 ± 2.3e-05 s⁻¹	0.000233 ± 5.6e-05 s⁻¹	0.000416 ± 0.00012 s⁻¹	0.00137 ± 0.00022 s⁻¹
A39U G59A	2.27e-05 ± 2.6e-06 s⁻¹						
G32A C68G	3.18e-05 ± 4.2e-06 s⁻¹					3.93e-05 ± 1.4e-05 s⁻¹	2.81e-05 ± 9.3e-06 s⁻¹
C16U A48U	0.000375 ± 9.7e-06 s⁻¹	2630 ± 150 µM			7.24e-05 ± 1.5e-05 s⁻¹	0.000181 ± 4.1e-05 s⁻¹	0.000297 ± 3.3e-05 s⁻¹
A14U G32U	0.000874 ± 0.00012 s⁻¹	3050 ± 730 µM		7.67e-05 ± 1.7e-05 s⁻¹	0.000142 ± 1.2e-05 s⁻¹	0.000422 ± 4e-05 s⁻¹	0.00066 ± 5.2e-05 s⁻¹
U49G C68G	3.3e-05 ± 5.3e-06 s⁻¹					3.47e-05 ± 1.3e-05 s⁻¹	
G13A U56A	0.000767 ± 0.0001 s⁻¹	3960 ± 750 µM		2.49e-05 ± 1e-05 s⁻¹	0.000106 ± 1.3e-05 s⁻¹	0.000312 ± 3.9e-05 s⁻¹	0.000519 ± 0.00011 s⁻¹
U47A U69A	9.51e-05 ± 1.3e-05 s⁻¹			0.00011 ± 4.9e-05 s⁻¹	8.57e-05 ± 2.5e-05 s⁻¹	0.000188 ± 8e-05 s⁻¹	8.87e-05 ± 2e-05 s⁻¹
A15U G40A	0.000675 ± 9.5e-05 s⁻¹	912 ± 230 µM	4.43e-05 ± 1.2e-05 s⁻¹	8.75e-05 ± 1.8e-05 s⁻¹	0.000282 ± 4.7e-05 s⁻¹	0.000515 ± 0.0001 s⁻¹	0.000611 ± 0.0001 s⁻¹
